Experiment [1] deals with T1, GST-PS1/1-81N (UniProt P49768 1-81).
T1 construct: range 1-81; Lacks the first transmembrane domain of PS1; also called PS1 N-terminus fused to GST; GST-fused with the N-terminus of PS1; not shown: glutathione S-transferase (GST) encoded by vector pGEX4T-1 (Pharmacia Biotech)
Kind of experiment: GST pull-down of in vitro translated [35S]-labeled TLN constructs, autoradiogram. On the procedure:
(§1) Part C. Total: autoradiogram of the translated, [³⁵S]-methionine labeled TLN constructs used for the binding reaction. Similar amounts of input material are used. Note the tendency of the intracellular domain (IC) to oligomerize.
(§2) Part D. Mapping of the binding domain of TLN. […] Radiolabeled translated products (Total) were assayed for binding to GST-PS1/39C (third panel), GST-PS1/1-81N (fourth panel) or GST alone (not shown). Binding becomes virtually abolished when the N-terminal 5 amino acids (Val⁸²⁹-Trp⁸³³) of the transmembrane region of TLN are deleted (construct 8 in top panel).

The target in experiment [2] is T2, GST alone (UniProt P08515 1-218 = GST).
T2 construct: Negative control, immobilized on glutathione beads; also called GST-beads
The experiment is described as above. How it is done:
as §1, §2

Experiment [3] addresses T3, GST-TLN/256C (mouse, UniProt Q60625 662-917).
T3 construct: Immobilized on glutathione beads; not shown: glutathione S-transferase (GST) encoded by vector pGEX4T-1 (Pharmacia Biotech)
T3 sequence (looked up): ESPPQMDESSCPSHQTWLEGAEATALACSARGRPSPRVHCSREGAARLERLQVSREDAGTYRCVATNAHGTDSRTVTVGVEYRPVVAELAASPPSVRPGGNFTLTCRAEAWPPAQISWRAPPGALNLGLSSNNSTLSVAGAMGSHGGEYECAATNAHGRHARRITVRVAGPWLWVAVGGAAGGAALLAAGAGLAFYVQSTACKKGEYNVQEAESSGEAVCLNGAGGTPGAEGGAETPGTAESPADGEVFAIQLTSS
Kind of experiment: GST pull-down from 1% Triton-X100 or 2% CHAPS mouse brain extracts, western blot. On the procedure:
GST alone was used as a negative control. PS1-CTF was predominantly detected in the bound fraction of low salt 1% Triton-X100 brain extracts. […] The difference between the intensity of the bands is due to different affinities of the pabs as shown for the crude extract (“Total” in first lane). Binding was largely abolished at high salt concentrations (400 mM).
Murine cortices were homogenized in 250 mM sucrose containing 10 mM Tris-HCL pH 7.4, 1 mM EDTA (De Strooper et al., 1999). Nuclei and tissue fragments were removed by low speed centrifugation. Microsomal membranes pelleted by high-speed centrifugation (50K rpm, 1 hour) were resuspended in LSB containing 1% Triton X-100 or 2% CHAPS. Aliquots (1 mg/ml) of the cleared extracts (55K rpm, 1 hour) were incubated overnight (4° C.) with immobilized GST fusion proteins. Beads were washed in low salt extraction buffer containing 0.5% Triton X-100 and bound proteins were analyzed by SDS-PAGE and western blotting.
In general terms: A western blot detects proteins with antibodies after separation by electrophoresis.

Experiment [4] deals with T1, GST-PS1/1-81N. The experiment in a line: GST pull-down of [35S]-labeled C-terminal APP-stubs expressed in neurons.
Experiment [5] has as its target T2, GST alone. The experiment in a line: GST pull-down of [35S]-labeled C-terminal APP-stubs expressed in neurons; data not shown.
Experiment [6] concerns the target T4, TLN/256C clone of the pAD-GAL4 mouse hippocampal two-hybrid library (mouse, UniProt Q60625 662-917).
T4 sequence (looked up): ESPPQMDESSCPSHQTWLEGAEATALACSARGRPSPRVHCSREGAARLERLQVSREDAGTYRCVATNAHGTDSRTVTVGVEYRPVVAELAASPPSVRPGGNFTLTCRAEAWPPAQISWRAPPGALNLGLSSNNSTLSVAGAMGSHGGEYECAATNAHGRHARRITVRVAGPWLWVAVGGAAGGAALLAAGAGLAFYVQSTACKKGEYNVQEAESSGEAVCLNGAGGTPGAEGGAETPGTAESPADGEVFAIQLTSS
Kind of experiment: yeast two-hybrid screen, His+ selection and β-galactosidase filter lift. From the text:
Endogenous TLN could be precipitated from Triton X-100 brain extracts using recombinant GST fusion proteins containing the 39 C-terminal residues of PS1 or PS2 (PS1/39C, FIG. 1, Part B). The binding was salt dependent (FIG. 1, Part C). […] We detected a weak signal for endogenous holo-APP only after long exposure (FIG. 1, Part D). […] Although the PS1-NTF/ CTF is Triton-X100 sensitive, minor amounts of PS1-NTF were also detected in precipitates of Triton-X100-extracted membranes. In the presence of 2% CHAPS however, both PS1-NTF and PS1-CTF were recovered on the beads as both fragments remain non-covalently bound under these conditions (Capell et al., 1998). […] Since CHAPS is less denaturing than TX100, it is possible that other proteins of the complex cause steric hindrance under these conditions (Capell et al., 1998).
Mouse hippocampal mRNA was used to generate a primary lambda library that was converted to a pAD-GAL4 plasmid library by in vivo mass excision (HybriZAP, Stratagene). The sequence coding for the C-terminal eight amino acids of PS1 was cloned into the pBD-GAL4 vector. Yeast was transformed simultaneously with the bait and the library plasmids using the lithium-acetate method (Gietz et al., 1995). His⁺ colonies were restreaked onto selection agar plates and assayed for lacZ gene expression by the β-galactosidase filter lift assay.

The results in this text go back to patent US20040115734A1 (VLAAMS INTERUNIVERSITAIR INSTITUUT VOOR BIOTECHNOLOGIE VZW, published 2004).

T2 sequence (P08515 whole entry): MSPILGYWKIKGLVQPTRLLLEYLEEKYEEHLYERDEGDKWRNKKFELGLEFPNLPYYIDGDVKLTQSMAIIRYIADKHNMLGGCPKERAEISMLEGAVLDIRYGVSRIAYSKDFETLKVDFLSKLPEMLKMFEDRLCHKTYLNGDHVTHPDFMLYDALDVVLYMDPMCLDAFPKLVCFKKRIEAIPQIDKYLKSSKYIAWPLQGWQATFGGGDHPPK

B1: intracellular domain (IC) of TLN (in vitro translated) (other, mouse, UniProt Q60625 855-917, looked up)
chain: AFYVQSTACKKGEYNVQEAESSGEAVCLNGAGGTPGAEGGAETPGTAESPADGEVFAIQLTSS
notes: domain: intracellular domain (IC); also called IC domain of TLN
B1: the binding result in experiment [1] and in experiment [2] was “no binding” in each case.

B2: BAP31 (endogenous, mouse brain extract) (other, UniProt Q61335 2-245, looked up)
chain: SLQWTTVATFLYAEVFAVLLLCIPFISPKRWQKVFKSRLVELVVTYGNTFFVVLIVILVLLVIDAVREILKYDDVTEKVNLQNNPGAMEHFHMKLFRAQRNLYIAGFSLLLSFLLRRLVTLISQQATLLASNEAFKKQAESASEAAKKYMEENDQLKKGAAEDGDKLDIGNTEMKLEENKSLKNDLRKLKDELASTKKKLEKAENEALAMQKQSEGLTKEYDRLLEEHAKLQASVRGPSVKKEE
B2: in experiment [3], the binding result is “no binding”.

B3: APP-C59 (other, UniProt P05067 712-770, looked up)
chain: IATVIVITLVMLKKKQYTSIHHGVVEVDAAVTPEERHLSKMQQNGYENPTYKFFEQMQN
notes: domain: γ40-cleaved C-terminal fragment (APP-C59); also called γ40-cleaved cytoplasmic domain of APP
Consider B3, for which the binding result in experiment [4] and in experiment [5] was “no binding” throughout.

B4: ductin (endogenous, mouse brain extract) (other, UniProt P63082 1-155, looked up)
chain: MADIKNNPEYSSFFGVMGASSAMVFSAMGAAYGTAKSGTGIAAMSVMRPELIMKSIIPVVMAGIIAIYGLVVAVLIANSLTDGITLYRSFLQLGAGLSVGLSGLAAGFAIGIVGDAGVRGTAQQPRLFVGMILILIFAEVLGLYGLIVALILSTK
Turning to B4, the binding result in experiment [3] is given as “no binding”.

B5: PS1-C8 bait (C-terminal eight amino acids of PS1 in pBD-GAL4) (other, UniProt P04386 1-147, looked up)
chain: MKLLSSIEQACDICRLKKLKCSKEKPKCAKCLKNNWECRYSPKTKRSPLTRAHLTEVESRLERLEQLFLLIFPREDLDMILKMDSLQDIKALLTGLFVQDNVNKDAVTDRLASVETDMPLTLRQHRISATSSSEESSNKGQRQLTVSLAFHQFYI
As for B5, in experiment [6], the binding result is on record as “binds”.
